Data on two molecules can be found in patent US20100093602A1 (CASE WESTERN RESERVE UNIVERSITY, published 2010).

First the molecules themselves.
T1: N-cadherin expressed on human glioblastoma LN-229 cells (human, UniProt P19022 160-906)
T1 construct: whole, on cells
T1 sequence (looked up): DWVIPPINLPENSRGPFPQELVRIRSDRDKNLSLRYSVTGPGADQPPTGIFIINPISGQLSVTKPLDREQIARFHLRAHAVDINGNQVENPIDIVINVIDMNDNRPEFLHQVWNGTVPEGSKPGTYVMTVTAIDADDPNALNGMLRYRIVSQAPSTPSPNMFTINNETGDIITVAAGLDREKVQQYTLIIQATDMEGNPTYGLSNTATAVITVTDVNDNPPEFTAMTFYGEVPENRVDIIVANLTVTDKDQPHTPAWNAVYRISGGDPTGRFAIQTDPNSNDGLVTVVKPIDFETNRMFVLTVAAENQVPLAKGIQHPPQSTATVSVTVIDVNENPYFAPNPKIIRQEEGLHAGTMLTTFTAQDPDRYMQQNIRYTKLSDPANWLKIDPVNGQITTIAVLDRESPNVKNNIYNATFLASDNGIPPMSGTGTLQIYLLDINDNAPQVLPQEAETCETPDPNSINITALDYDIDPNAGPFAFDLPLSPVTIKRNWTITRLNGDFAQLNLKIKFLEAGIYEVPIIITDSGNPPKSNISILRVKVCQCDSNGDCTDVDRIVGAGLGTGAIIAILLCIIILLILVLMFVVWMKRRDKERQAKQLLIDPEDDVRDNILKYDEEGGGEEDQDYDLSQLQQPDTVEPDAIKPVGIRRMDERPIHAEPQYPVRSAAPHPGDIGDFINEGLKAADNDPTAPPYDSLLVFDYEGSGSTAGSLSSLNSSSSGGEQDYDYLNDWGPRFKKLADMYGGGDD

B1: human N-cadherin-Fc (R&D Systems) (Fc fusion, UniProt P19022 160-724, looked up)
chain: DWVIPPINLPENSRGPFPQELVRIRSDRDKNLSLRYSVTGPGADQPPTGIFIINPISGQLSVTKPLDREQIARFHLRAHAVDINGNQVENPIDIVINVIDMNDNRPEFLHQVWNGTVPEGSKPGTYVMTVTAIDADDPNALNGMLRYRIVSQAPSTPSPNMFTINNETGDIITVAAGLDREKVQQYTLIIQATDMEGNPTYGLSNTATAVITVTDVNDNPPEFTAMTFYGEVPENRVDIIVANLTVTDKDQPHTPAWNAVYRISGGDPTGRFAIQTDPNSNDGLVTVVKPIDFETNRMFVLTVAAENQVPLAKGIQHPPQSTATVSVTVIDVNENPYFAPNPKIIRQEEGLHAGTMLTTFTAQDPDRYMQQNIRYTKLSDPANWLKIDPVNGQITTIAVLDRESPNVKNNIYNATFLASDNGIPPMSGTGTLQIYLLDINDNAPQVLPQEAETCETPDPNSINITALDYDIDPNAGPFAFDLPLSPVTIKRNWTITRLNGDFAQLNLKIKFLEAGIYEVPIIITDSGNPPKSNISILRVKVCQCDSNGDCTDVDRIVGAGLGTGA
notes: also called N-cadherin substrate; purified N-cadherin substrate; not shown: Fc part of the bought fusion

Assay [1] addresses T1, N-cadherin expressed on human …. Kind of assay: cell adhesion assay: LN-229 cells on spots of N-cadherin-Fc on nitrocellulose-coated dishes; this is the pair whose adhesion ADH-1 reduces. The protocol:
Sterile 35 mm tissue culture dishes were coated with nitrocellulose in methanol and allowed to dry. Distinct spots, containing 50 ng of either purified Laminin (Sigma) or N-cadherin-Fc (R&D Systems), were made by spotting 10 μl of protein solution on the nitrocellulose-coated tissue culture dishes. Each dish contained two distinct spots of both Laminin and N-cadherin-Fc. After a 20-min incubation at room temperature, the protein solutions were aspirated. Remaining binding sites on the nitrocellulose were blocked with 2% BSA in PBS, and the dishes were rinsed with DMEM (Invitrogen).
4×10⁵ cells were added to each tissue culture dish in the presence of N-cadherin peptidomimetic small molecules, reconstituted in either DMSO or 0.3% cyclodextrin, and diluted in DMEM supplemented with 10% fetal bovine serum (HyClone). In the control experiments, either DMSO or cyclodextrin was added with LN-229 cells in the absence of the peptidomimetic small molecules. The cells were allowed to adhere to the protein substrate for 2 hours at 37° C., 5% CO₂. After incubation, the medium was removed and the tissue culture dishes were rinsed once with PBS to remove any unattached cells. Cells were fixed with 4% PFA, 0.01% glutaraldehyde in PEM buffer for 10 minutes at room temperature and rinsed once in PBS prior to imaging.

The target of assay [2] is B1. Kind of assay: cell-based or functional assay.

With B1, in assay [1], the binding result is “binds”.

In the case of Ac-CHAVC-NH2 (also: cyclic peptide, cyclising bond not given here) [ADH-1 (short cyclic HAV peptide N-Ac-CHAVC-NH2)], the “IC50 for inhibition of RGC neurite outgrowth” value in assay [2] was found to be 2330 µM.
